Results from patent publication US20060154340A1.

Biological target: trypsin
Experiment: cell-based or functional assay

TrxA-PI2JO fusion protein (thioredoxin fused to potato proteinase inhibitor II isomer PI2JO, from plasmid pKBEPI-5 in E. coli BL21trxB(DE3)) (from UniProt P0AA25 1-109)
Trypsin inhibition activity (hydrolysis of TAME by trypsin followed at 247 nm; one unit = amount causing 50% inhibition of trypsin) (Trypsin-Inhibition-Unit/mL): 1390
